Results taken from article PMC8211822, “CRISPR-Associated Primase-Polymerases are implicated in prokaryotic CRISPR-Cas adaptation” (Nature Communications, 2021).

Legend:
[1] = target: the molecule itself; assay: SEC; MpCAPP-MBP on Superdex 200 10/300
[2] = target: T1, MpAgo, recombinant purified (Marinitoga piezophila, UniProt H2J4R4 1-639); assay: pull-down; bait MpCAPP-MBP (20 µg) pre-bound to amylose resin and washed; one prey protein (20 µg) added in 200 µl; 25 mM HEPES pH 7.5, 100 mM NaCl, 50 mM KCl, 3 mM MgCl2, 5% glycerol, 0.5 mM TCEP, 0.1% IGEPAL CA-630; 4 °C, 45 min; Coomassie-stained SDS-PAGE; details: both partners purified
T1 construct: Argonaute, Marinitoga piezophila, expressed from pET-6His-MBP-MpAgo (Addgene, number not given); His-MBP tag removed with HRV 3C protease; source: E. coli BL21(DE3)pLysS, purified (CoHis resin, tag removal, heparin, Superdex 200)
T1 sequence (looked up): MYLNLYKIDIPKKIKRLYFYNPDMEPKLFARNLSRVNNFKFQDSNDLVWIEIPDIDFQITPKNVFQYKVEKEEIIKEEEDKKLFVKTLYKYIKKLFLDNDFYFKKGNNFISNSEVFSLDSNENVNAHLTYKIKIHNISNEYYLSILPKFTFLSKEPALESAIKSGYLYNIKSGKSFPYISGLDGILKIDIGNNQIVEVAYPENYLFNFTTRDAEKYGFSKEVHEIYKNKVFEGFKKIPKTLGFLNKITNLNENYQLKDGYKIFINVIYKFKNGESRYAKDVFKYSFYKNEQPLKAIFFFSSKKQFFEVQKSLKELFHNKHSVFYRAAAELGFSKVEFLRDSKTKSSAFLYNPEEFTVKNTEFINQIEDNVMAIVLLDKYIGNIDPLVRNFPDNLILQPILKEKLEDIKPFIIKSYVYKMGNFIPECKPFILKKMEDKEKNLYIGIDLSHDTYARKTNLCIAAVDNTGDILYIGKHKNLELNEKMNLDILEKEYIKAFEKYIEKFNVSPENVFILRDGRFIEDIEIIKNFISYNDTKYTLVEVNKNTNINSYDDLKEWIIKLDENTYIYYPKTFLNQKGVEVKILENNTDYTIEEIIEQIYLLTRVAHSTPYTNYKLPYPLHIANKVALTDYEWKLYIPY

B1: MpCAPP with C-terminal MBP fusion (MpCAPP-MBP), recombinant (enzyme, Marinitoga piezophila, UniProt H2J4R1 1-546, looked up)
chain: MNFKELAFKAEEDFDFEKAIEYYKKAFNELTINDDSLIRYANLLFDFQKFEEAEPIFEKIVSEINDSEYMSKLAIIYEENNKFEKALKIYKELGIESKVKELSDKIELKAPSQNAIKRFMTLFSGREDVFSIQYEGGYRPIRRPLNFHDIKDHFSGKKTLGIYLLKKNDTVKFAAYDIDIKKHYLNREDKFVYEENSKKVAKRLSRELNLENIIHYFEFTGNRGYHIWIFFDIPVSAYKIKYIMEKILDRIELEEGIDVEIFPKQTSLNGGLGNLIKVPLGVHKKTGKKCLFVDNDFNVIENQIEFLNNIKENKATEIDKLFREIFNENDYDDFNVTYKKRTTSSKNSASKKIKSSIRKTLPKSNKNIFTQMIEGCHILKQINEKIEKEAYITEEEEMIFIKSLANLENSKKFIEMKLSQTINFSKKRIDMIIKQSLGVPITCEEIRKIILNKDISLSLENCTCKFQGNYNSPYAIVENIEEMFLDKIDINDIAKKIVEKNAEKFEIEKEIKNLKRMIAKKMGDSKELRTEIGTIKRFGDDIEIIL
notes: MpCAPP, Marinitoga piezophila, Marpi_0402 / WP_014295918.1; the MBP fusion has a size of ~108 kDa; Codon-optimised gene in Supplementary Note 4; cloning details in Supplementary Data 3; also called MpCAPP WT; CAPP WT (C-terminal MBP); source: E. coli BL21 (DE3), purified (cobalt NTA, amylose resin); not shown: MBP, C-terminal, kept
[1]
  binding result: binds
[2]
  binding result: binds
